Laboratory results from patent US20240261333A1 (published 2024).

Experiments:
Test in all cases: co-IP, anti-FLAG, lysate of cells with N-FLAG B3GNT2; mass spectrometry
FAU = FAU (human, UniProt P62861 75-133)
Protocol: (§1) Cells were plated in 10-cm cell culture dishes and grown to 60-80% confluency. For each condition, two biological replicates were harvested for co-IP. Cells were washed with PBS and 4 mL of lysis buffer (20 mM HEPES, 1% Triton X-100, 150 mM NaCl, 1 mM EDTA, and 10% glycerol) containing protease inhibitor cocktail was added. Cells were scraped and lysate was incubated at 4° C. under rotary agitation for 1 h. Lysate was centrifuged at 14,000×g for 10 min at 4° C. Supernatant was transferred to a new tube and an aliquot was taken as the input. […] For Western blots, 10 μg/mL Chicken Anti-FLAG (Aves labs ET-DY100) and IgY control (R&D Systems AB-101-C) antibodies were biotinylated (Thermo Fisher Scientific 90407) and added to the respective conditions. Lysates with antibodies were incubated at 4° C. under rotary agitation overnight. For each mL of lysate, 50 μL of Pierce Protein A/G Magnetic Beads (Mass spectrometry; Thermo Fisher Scientific 88803) or Pierce Streptavidin Magnetic Beads (Western blot; Thermo Fisher Scientific 88817) was washed twice with lysis buffer. Lysates with antibodies were added to the beads and incubated at 4° C. under rotary agitation for 4 h. Beads were washed with lysis buffer 3 times and resuspended in lysis buffer for storage.
(§2) Magnetic beads were resuspended in 100 mM Tris pH 7.8, reduced, alkylated and digested with trypsin at 37° ° C. overnight. This solution was subjected to solid phase extraction to concentrate the peptides and remove unwanted reagents followed by injection onto a Shimadzu HPLC with fraction collector. Eight fractions were collected and after concentration were injected on a Waters NanoAcquity HPLC equipped with a self-packed Aeris 3 μm C18 analytical column 0.075 mm by 20 cm, (Phenomenex). Peptides were eluted using standard reverse-phase gradients. The effluent from the column was analyzed using a Thermo Orbitrap Elite mass spectrometer (nanospray configuration) operated in a data dependent manner for 54 minutes. The resulting fragmentation spectra were correlated against the known database using Proteome Discover 1.4 (Thermo Fisher Scientific).

RPS28 = RPS28 (human, UniProt P62857 1-69)
Protocol: as §1, §2

HNRNPA2B1 = biological target: T1, HNRNPA2B1 (human, UniProt P22626-2 1-341)
T1 construct: also called NP_002128.1 (+1)
Protocol: as §1, §2

G3BP1 = biological target: T2, G3BP1 (human, UniProt Q13283 2-466)
T2 construct: also called NP_005745.1
Protocol: as §1, §2

DNAJC3 = biological target: T3, DNAJC3 (human, UniProt Q13217 32-504)
T3 construct: also called NP_006251.1 (+4)
T3 sequence (looked up): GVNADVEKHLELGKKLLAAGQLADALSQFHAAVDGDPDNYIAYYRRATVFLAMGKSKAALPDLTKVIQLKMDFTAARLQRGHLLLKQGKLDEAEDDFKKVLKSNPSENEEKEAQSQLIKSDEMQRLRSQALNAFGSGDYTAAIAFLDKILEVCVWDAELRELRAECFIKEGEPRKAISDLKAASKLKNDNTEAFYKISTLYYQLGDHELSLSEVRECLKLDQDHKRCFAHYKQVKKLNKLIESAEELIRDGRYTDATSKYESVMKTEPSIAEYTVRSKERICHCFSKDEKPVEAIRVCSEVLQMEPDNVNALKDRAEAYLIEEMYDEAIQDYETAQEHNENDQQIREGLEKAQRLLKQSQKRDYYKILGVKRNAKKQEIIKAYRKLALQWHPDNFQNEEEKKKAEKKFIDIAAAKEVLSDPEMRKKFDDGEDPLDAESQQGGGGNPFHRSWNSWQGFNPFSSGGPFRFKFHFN
Protocol: as §1, §2

RPS3 = RPS3 (human, UniProt P23396 2-243)
Protocol: as §1, §2

KRT4 = biological target: T4, KRT4 (human, UniProt P19013 1-520)
T4 construct: also called NP_002263.3
Protocol: as §1, §2

CSE1L = biological target: T5, CSE1L (human, UniProt P55060-4 1-915, limits assumed)
T5 construct: also called NP_001243064.1 (+2)
T5 sequence (looked up): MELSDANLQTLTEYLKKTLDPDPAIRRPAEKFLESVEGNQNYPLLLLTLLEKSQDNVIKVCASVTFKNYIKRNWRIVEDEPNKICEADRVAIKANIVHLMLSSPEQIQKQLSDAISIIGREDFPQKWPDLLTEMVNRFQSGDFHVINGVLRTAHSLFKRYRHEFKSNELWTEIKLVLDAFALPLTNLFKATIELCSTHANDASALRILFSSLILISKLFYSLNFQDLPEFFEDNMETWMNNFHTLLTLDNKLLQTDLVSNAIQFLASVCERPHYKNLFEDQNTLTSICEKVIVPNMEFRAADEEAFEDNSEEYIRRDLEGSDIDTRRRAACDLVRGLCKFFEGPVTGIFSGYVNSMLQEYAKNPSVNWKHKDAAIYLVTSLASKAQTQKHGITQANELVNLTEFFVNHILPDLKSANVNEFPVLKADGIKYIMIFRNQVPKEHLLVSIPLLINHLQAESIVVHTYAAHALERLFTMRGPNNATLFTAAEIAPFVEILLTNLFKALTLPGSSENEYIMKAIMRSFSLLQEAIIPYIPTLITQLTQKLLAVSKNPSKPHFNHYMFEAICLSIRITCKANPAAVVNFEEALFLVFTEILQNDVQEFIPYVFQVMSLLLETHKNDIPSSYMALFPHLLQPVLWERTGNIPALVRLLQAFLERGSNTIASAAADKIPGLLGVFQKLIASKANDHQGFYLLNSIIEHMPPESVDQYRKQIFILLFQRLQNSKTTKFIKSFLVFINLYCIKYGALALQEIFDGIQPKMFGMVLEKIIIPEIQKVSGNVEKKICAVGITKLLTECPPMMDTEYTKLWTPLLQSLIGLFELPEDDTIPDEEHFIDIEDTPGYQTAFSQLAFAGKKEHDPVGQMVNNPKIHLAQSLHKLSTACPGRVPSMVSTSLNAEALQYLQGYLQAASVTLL
Protocol: as §1, §2

T4 sequence (P19013 whole entry): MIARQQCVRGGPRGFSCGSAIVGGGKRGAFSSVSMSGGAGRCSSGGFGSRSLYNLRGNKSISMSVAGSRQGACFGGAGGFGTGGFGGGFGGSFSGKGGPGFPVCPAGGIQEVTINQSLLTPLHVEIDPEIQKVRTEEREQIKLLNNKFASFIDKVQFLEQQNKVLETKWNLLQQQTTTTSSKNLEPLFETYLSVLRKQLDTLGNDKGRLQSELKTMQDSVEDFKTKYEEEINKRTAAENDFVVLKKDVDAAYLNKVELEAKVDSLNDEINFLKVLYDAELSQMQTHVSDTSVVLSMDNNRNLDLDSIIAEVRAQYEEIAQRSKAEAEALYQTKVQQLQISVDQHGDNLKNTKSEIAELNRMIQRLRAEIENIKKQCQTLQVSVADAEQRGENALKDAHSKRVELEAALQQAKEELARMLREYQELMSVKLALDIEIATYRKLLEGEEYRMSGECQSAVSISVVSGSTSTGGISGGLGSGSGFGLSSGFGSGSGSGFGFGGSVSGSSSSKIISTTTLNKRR
T2 sequence (Q13283 2-466 limits assumed): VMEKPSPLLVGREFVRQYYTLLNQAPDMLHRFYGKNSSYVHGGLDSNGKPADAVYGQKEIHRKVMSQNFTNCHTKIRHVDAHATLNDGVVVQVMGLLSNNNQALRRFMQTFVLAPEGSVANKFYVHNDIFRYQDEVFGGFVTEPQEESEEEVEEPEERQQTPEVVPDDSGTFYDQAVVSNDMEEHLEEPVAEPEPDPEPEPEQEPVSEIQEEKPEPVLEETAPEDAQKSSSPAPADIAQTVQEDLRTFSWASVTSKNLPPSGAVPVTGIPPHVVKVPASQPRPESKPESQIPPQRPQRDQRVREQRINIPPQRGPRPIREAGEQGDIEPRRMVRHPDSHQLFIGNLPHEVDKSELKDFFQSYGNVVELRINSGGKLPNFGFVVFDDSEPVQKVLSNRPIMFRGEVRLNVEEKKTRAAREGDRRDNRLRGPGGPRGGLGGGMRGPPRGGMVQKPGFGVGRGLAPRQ
T1 sequence (P22626 other isoform, or with tags, fused parts or gaps limits assumed): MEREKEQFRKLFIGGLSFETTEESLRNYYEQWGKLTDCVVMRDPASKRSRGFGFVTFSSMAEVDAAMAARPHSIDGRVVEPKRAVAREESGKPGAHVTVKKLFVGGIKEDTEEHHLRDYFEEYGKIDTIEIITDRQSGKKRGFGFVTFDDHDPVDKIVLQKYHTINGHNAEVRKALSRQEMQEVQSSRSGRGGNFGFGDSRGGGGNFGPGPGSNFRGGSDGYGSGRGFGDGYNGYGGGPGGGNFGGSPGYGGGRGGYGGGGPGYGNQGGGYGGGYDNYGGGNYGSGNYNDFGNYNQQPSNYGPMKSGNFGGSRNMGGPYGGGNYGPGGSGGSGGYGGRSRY

B1: N-terminal FLAG tagged B3GNT2 (enzyme, human, UniProt Q9NY97 1-397, looked up)
chain: MSVGRRRIKLLGILMMANVFIYFIMEVSKSSSQEKNGKGEVIIPKEKFWKISTPPEAYWNREQEKLNRQYNPILSMLTNQTGEAGRLSNISHLNYCEPDLRVTSVVTGFNNLPDRFKDFLLYLRCRNYSLLIDQPDKCAKKPFLLLAIKSLTPHFARRQAIRESWGQESNAGNQTVVRVFLLGQTPPEDNHPDLSDMLKFESEKHQDILMWNYRDTFFNLSLKEVLFLRWVSTSCPDTEFVFKGDDDVFVNTHHILNYLNSLSKTKAKDLFIGDVIHNAGPHRDKKLKYYIPEVVYSGLYPPYAGGGGFLYSGHLALRLYHITDQVHLYPIDDVYTGMCLQKLGLVPEKHKGFRTFDIEEKNKNNICSYVDLMLVHSRKPQEMIDIWSQLQSAHLKC
notes: Overexpressed in cells and pulled down from the lysate with mouse anti-FLAG antibody; also called N-FLAG B3GNT2; N-term FLAG; not shown: N-terminal FLAG tag
co-IP mass spectrometry count (FAU): 5
co-IP mass spectrometry count (RPS28): 0
co-IP mass spectrometry count (HNRNPA2B1): 7
co-IP mass spectrometry count (G3BP1): 27
co-IP mass spectrometry count (DNAJC3): 0
co-IP mass spectrometry count (RPS3): 10
co-IP mass spectrometry count (KRT4): 22
co-IP mass spectrometry count (CSE1L): 0
